Assay results from patent US20180355059A1 (PHARMAEXPLORER, published 2018).

Key:
[1] = target: T1, recombinant cyno monkey PCSK9 protein (cyno monkey, UniProt A8T666 31-692 (rhesus entry), limits assumed, biotin-labelled in the ELISA (Biotin labeling kit)); experiment: ELISA, biotin-cyno PCSK9 on streptavidin plate; antibody 0.0067 nM
T1 construct: also called cyno PCSK9; Cyno Monkey PCSK9-His
Procedure: (§1) The next day, the plates were washed twice with wash buffer [0.01% (v/v) Tween 20], then blocked with blocking buffer [0.01% (v/v) 0.1% BSA (w/w) Tween 20] at room temperature for 2 hours. […] Unbound PCSK9 proteins were removed by washing the plate three times with wash buffer [0.01% (v/v) Tween 20]. […] The plates were washed twice with wash buffer [0.01% (v/v) Tween 20], and 200 uL HRP-conjugated secondary antibody (Sigma) was added to each well and incubated for 2 hours at 37° C. After the plates were washed three times with wash buffer, 100 ul TMB substrate were added to each well and incubated for 30 minutes at room temperature. 100 ul stop solution (0.1N HCl) were added to each well to stop the reaction.

[2] = target: T1, recombinant cyno monkey PCSK9 protein; experiment: ELISA, biotin-cyno PCSK9 on streptavidin plate; antibody 0.067 nM
Procedure: as §1

[3] = target: T2, recombinant human PCSK9 protein, His-tagged (Immunogen A, hPCSK9-His) (human, UniProt Q8NBP7 31-692, limits assumed, biotin-labelled in the ELISA and blocking assays (Biotin labeling kit)); experiment: ELISA, biotin-hPCSK9-His on streptavidin plate; antibody 0.67 nM
T2 construct: also called human PCSK9-His; recombinant hPCSK9-His; not shown: His tag

[4] = target: T2, recombinant human PCSK9 protein, …; experiment: ELISA, biotin-hPCSK9-His on streptavidin plate; antibody 66.67 nM
Procedure: as §1

[5] = target: T1, recombinant cyno monkey PCSK9 protein; experiment: ELISA, biotin-cyno PCSK9 on streptavidin plate; antibody 6.67 nM
Procedure: as §1

[6] = target: T2, recombinant human PCSK9 protein, …; experiment: blocking ELISA, biotin-hPCSK9-His on coated LDLR ECD-His; antibody 200 nM
Procedure: (§2) Purified LDLR^ECD-His was diluted with PBS to a final concentration of 1.0 ug/ml, and 100 uL of diluted LDLR^ECD-His were added to each well of 96-well plate that was then sealed with plastic film and incubated at 4° C. overnight. The plate was washed twice with wash buffer [PBS+0.01% (v/v) Tween 20] and incubated with blocking buffer [PBS+0.01% (v/v) BSA+1% Tween20 (w/w)] at room temperature for 2 hours. […] The plate was washed three times with wash buffer [0.01% (v/v) Tween 20]. 100 uL HRP-conjugated streptavidin (Sigma) were then added to each well and incubated at 37° C. for 1 hour. The plate was then washed three times with wash buffer, and 100 uL TMB substrate were added to each well. After 15 minutes of incubation at room temperature, the reaction was stopped by adding 50 uL stop solution (0.1N HCl).

[7] = target: T2, recombinant human PCSK9 protein, …; experiment: ELISA, biotin-hPCSK9-His on streptavidin plate; antibody 0.0067 nM
Procedure: as §1

[8] = target: T2, recombinant human PCSK9 protein, …; experiment: blocking ELISA, biotin-hPCSK9-His on coated LDLR ECD-His; antibody 0.06 nM
Procedure: as §2

[9] = target: T2, recombinant human PCSK9 protein, …; experiment: blocking ELISA, biotin-hPCSK9-His on coated LDLR ECD-His; antibody 40 nM
Procedure: as §2

[10] = target: T2, recombinant human PCSK9 protein, …; experiment: blocking ELISA, biotin-hPCSK9-His on coated LDLR ECD-His; antibody 0.01 nM
Procedure: as §2

[11] = target: T2, recombinant human PCSK9 protein, …; experiment: blocking ELISA, biotin-hPCSK9-His on coated LDLR ECD-His; antibody 1.6 nM
Procedure: as §2

[12] = target: T2, recombinant human PCSK9 protein, …; experiment: ELISA, biotin-hPCSK9-His on streptavidin plate; antibody 6.67 nM
Procedure: as §1

[13] = target: T1, recombinant cyno monkey PCSK9 protein; experiment: ELISA, biotin-cyno PCSK9 on streptavidin plate; antibody 0.67 nM
Procedure: as §1

[14] = target: T2, recombinant human PCSK9 protein, …; experiment: blocking ELISA, biotin-hPCSK9-His on coated LDLR ECD-His; antibody 0.32 nM
Procedure: as §2

[15] = target: T1, recombinant cyno monkey PCSK9 protein; experiment: ELISA, biotin-cyno PCSK9 on streptavidin plate; antibody 0 nM (blank)
Procedure: as §1

[16] = target: T2, recombinant human PCSK9 protein, …; experiment: ELISA, biotin-hPCSK9-His on streptavidin plate; antibody 0.00067 nM
Procedure: as §1

[17] = target: T2, recombinant human PCSK9 protein, …; experiment: blocking ELISA, biotin-hPCSK9-His on coated LDLR ECD-His; antibody 8 nM
Procedure: as §2

[18] = target: T2, recombinant human PCSK9 protein, …; experiment: ELISA, biotin-hPCSK9-His on streptavidin plate; antibody 0.000067 nM
Procedure: as §1

[19] = target: T1, recombinant cyno monkey PCSK9 protein; experiment: ELISA, biotin-cyno PCSK9 on streptavidin plate; antibody 66.67 nM
Procedure: as §1

[20] = target: T2, recombinant human PCSK9 protein, …; experiment: ELISA, biotin-hPCSK9-His on streptavidin plate; antibody 0 nM (blank)
Procedure: as §1

[21] = target: T1, recombinant cyno monkey PCSK9 protein; experiment: ELISA, biotin-cyno PCSK9 on streptavidin plate; antibody 0.00067 nM
Procedure: as §1

[22] = target: T1, recombinant cyno monkey PCSK9 protein; experiment: ELISA, biotin-cyno PCSK9 on streptavidin plate; antibody 0.000067 nM
Procedure: as §1

[23] = target: T2, recombinant human PCSK9 protein, …; experiment: ELISA, biotin-hPCSK9-His on streptavidin plate; antibody 0.067 nM
Procedure: as §1

T1 sequence (A8T666 31-692 limits assumed): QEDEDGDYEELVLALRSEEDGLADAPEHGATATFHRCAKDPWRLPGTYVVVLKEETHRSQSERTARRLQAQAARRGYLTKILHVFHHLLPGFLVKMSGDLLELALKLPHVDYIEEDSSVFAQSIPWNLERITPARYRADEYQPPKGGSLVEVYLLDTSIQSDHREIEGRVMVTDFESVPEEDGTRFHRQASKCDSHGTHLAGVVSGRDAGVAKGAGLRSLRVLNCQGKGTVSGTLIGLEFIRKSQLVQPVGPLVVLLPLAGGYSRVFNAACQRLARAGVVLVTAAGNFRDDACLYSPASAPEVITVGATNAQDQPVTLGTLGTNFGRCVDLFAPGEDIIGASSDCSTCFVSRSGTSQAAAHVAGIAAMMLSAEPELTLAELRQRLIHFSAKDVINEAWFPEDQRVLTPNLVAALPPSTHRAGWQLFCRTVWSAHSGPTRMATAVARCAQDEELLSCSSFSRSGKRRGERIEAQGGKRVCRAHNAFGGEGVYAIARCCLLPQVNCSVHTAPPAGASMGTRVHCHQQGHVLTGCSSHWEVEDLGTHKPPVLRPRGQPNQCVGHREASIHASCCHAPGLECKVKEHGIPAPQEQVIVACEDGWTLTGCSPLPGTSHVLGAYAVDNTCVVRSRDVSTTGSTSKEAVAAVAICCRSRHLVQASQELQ

Row | OD450 nm [1] [OD450 nm] | OD450 nm [2] [OD450 nm] | OD450 nm [3] [OD450 nm] | OD450 nm [4] [OD450 nm] | OD450 nm [5] [OD450 nm] | OD450 nm (PCSK9 bound to LDLR) [6] [OD450 nm] | OD450 nm [7] [OD450 nm] | OD450 nm (PCSK9 bound to LDLR) [8] [OD450 nm] | OD450 nm (PCSK9 bound to LDLR) [9] [OD450 nm] | OD450 nm (PCSK9 bound to LDLR) [10] [OD450 nm] | OD450 nm (PCSK9 bound to LDLR) [11] [OD450 nm] | OD450 nm [12] [OD450 nm] | OD450 nm [13] [OD450 nm] | OD450 nm (PCSK9 bound to LDLR) [14] [OD450 nm] | OD450 nm [15] [OD450 nm] | OD450 nm [16] [OD450 nm] | OD450 nm (PCSK9 bound to LDLR) [17] [OD450 nm] | OD450 nm [18] [OD450 nm] | OD450 nm [19] [OD450 nm] | OD450 nm [20] [OD450 nm] | Binder | further results
1 | 0.27 | 0.76 | 2.89 | 2.98 | 2.86 | 0.55 | 0.3 | 1.3 | 0.68 | 1.34 | 0.97 | 2.99 | 2.53 | 1.2 | 0.21 | 0.17 | 0.78 | 0.19 | 2.89 | 0.22 | 74C10A8, chimeric anti-PCSK9 mAb purified from hybridoma (antibody, V domains shown, From Harbour H2L2 mice: human variable regions, rat constant regions) VH: QVQLQESGPGLVKPSETLSLTCSVSGGSINTYYWSWIRQPPGKGLEWIGYIYYSGSTNYNPSLKSRVTISVDTSKNQFSLKLTSVTAADTAVYYCARERFTMVRGVMMDYYYYGMDVWGQGTTVTVSS VL: DIQLTQSPSFLSASVGDRVTITCRASQGISSYLAWYQQKPGKAPKLLIYAASTLQSGVPSRFSGSGSGTEFTLTISSLQPEDFATYYCQQLNSYPRTFGQGTKVEIK | OD450 nm [21]: 0.34 OD450 nm; OD450 nm [22]: 0.18 OD450 nm
2 | 0.26 | 0.81 | 2.66 | 2.85 | 2.82 | 0.55 | 0.27 | 1.18 | 0.59 | 1.29 | 0.96 | 2.85 | 2.5 | 1.19 | 0.19 | 0.21 | 0.7 | 0.2 | 2.88 | 0.18 | 76A1B11, chimeric anti-PCSK9 mAb purified from hybridoma (antibody, V domains shown, From Harbour H2L2 mice: human variable regions, rat constant regions) VH: QVQLVESGGGVVQPGRSLRLSCAATGFTFSIYGMHWVRQAPGKGLEWVAVIWYDGSNKYYADSVKGRFIISRDNSKNTLYLQMNSLRVEDTAVYYCVSDYFGSGNSYYYYGMDVWGQGTTVTVSS VL: DIQMTQSPSSLSASVGDRVTITCRASQVISNYLAWYQQKPGKVPKLLIYTASTLQSGVPSRFSGSGSGADFTLTISSLQPEDVATYYCQKYNSAPYTFGQGTKLEIK | OD450 nm [23]: 0.86 OD450 nm; OD450 nm [21]: 0.23 OD450 nm; OD450 nm [22]: 0.21 OD450 nm
3 | 0.27 | 1 | 2.87 | 2.93 | 2.88 | 0.63 | 0.36 | 1.13 | 0.67 | 1.06 | 0.89 | 2.94 | 2.67 | 1.11 | 0.2 | 0.21 | 0.61 | 0.19 | 2.9 | 0.22 | 139G1C5, chimeric anti-PCSK9 mAb purified from hybridoma (antibody, V domains shown, From Harbour H2L2 mice: human variable regions, rat constant regions) VH: QVQLQESGPGLVKPSGTLSLTCAVSGGSISRNNWWSWVRQPPGKGLEWIGEIYHSGSTNYNPSLKSRVTISVDKSKNQFSLKLSSVTAADTAVYYCARDLLGIGLDYWGQGTLVTVSS VL: EFVLTQSPATLSLSPGERAILSCRASQSFSSYIAWYQQKPGQAPRLLIYDASNRATGIPARFSGSGSGTDFTLTISSLEPEDFAVYYCQQHSNWMYTFGQGTKLEIK | OD450 nm [23]: 1.55 OD450 nm; OD450 nm [21]: 0.26 OD450 nm; OD450 nm [22]: 0.23 OD450 nm
4 | 0.2 | 0.35 | 2.42 | 2.91 | 2.67 | 0.7 | 0.25 | 1.2 | 0.74 | 1.26 | 1.2 | 2.91 | 1.25 | 1.17 | 0.33 | 0.21 | 0.94 | 0.18 | 2.93 | 0.17 | 152G2F7, chimeric anti-PCSK9 mAb purified from hybridoma (antibody, V domains shown, From Harbour H2L2 mice: human variable regions, rat constant regions) VH: EVQLVESGGGLVQPGGSLRLSCAASEFTFGGYWMTWVRQAPGKGLEWVANIKQDGSEKYYVDSVKGRFTISRDNAKNSLYLHMNSLRAEDTAVYYCARDRTTMIRGVSLYYYYYGMDVWGQGTAVTVSS VL: EIVLTQSPATLSLSPGERATLSCRASQSVSSYLAWYQQKPGQAPRLLIYDASNRATGIPARFSGSGSGTDFTLTISSLEPEDFAVYYCQQRSNWPLTFGGGTKVEIK | OD450 nm [23]: 0.6 OD450 nm; OD450 nm [21]: 0.21 OD450 nm; OD450 nm [22]: 0.27 OD450 nm
